± gives the standard deviation of the averaged measurements.
Experiment: total protein half-life in vivo (active degradation + dilution); higher = more stable protein
[1] = E. coli NCM3722 delta-clpP delta-lon delta-hslV, growth: N-lim chemostat, doubling time 6 h
[2] = E. coli NCM3722 delta-clpP, growth: N-lim chemostat, doubling time 6 h
[3] = E. coli NCM3722 delta-hslV, growth: N-lim chemostat, doubling time 6 h
[4] = E. coli NCM3722 delta-lon, growth: N-lim chemostat, doubling time 6 h
[5] = E. coli NCM3722 delta-smpB, growth: N-lim chemostat, doubling time 6 h
[6] = wild type E. coli NCM3722, growth: C-lim chemostat, doubling time 3 h
[7] = wild type E. coli NCM3722, growth: C-lim chemostat, doubling time 6 h
[8] = wild type E. coli NCM3722, growth: C-lim chemostat, doubling time 12 h
[9] = wild type E. coli NCM3722, growth: N-lim chemostat, doubling time 6 h
[10] = wild type E. coli NCM3722, growth: N-lim chemostat, doubling time 12 h
[11] = wild type E. coli NCM3722, growth: P-lim chemostat, doubling time 6 h
[12] = wild type E. coli NCM3722, growth: P-lim chemostat, doubling time 12 h

Row | Sequence | total protein half-life in vivo [1] | total protein half-life in vivo [2] | total protein half-life in vivo [3] | total protein half-life in vivo [4] | total protein half-life in vivo [5] | total protein half-life in vivo [6] | total protein half-life in vivo [7] | total protein half-life in vivo [8] | total protein half-life in vivo [9] | total protein half-life in vivo [10] | total protein half-life in vivo [11] | total protein half-life in vivo [12]
1 | MKLQLVAVGTKMPDWVQTGFTEYLRRFPKDMPFELIEIPAGKRGKNADIKRILDKEGEQMLAAAGKNRIVTLDIPGKPWDTPQLAAELERWKLDGRDVSLLIGGPEGLSPACKAAAEQSWSLSALTLPHPLVRVLVAESLYRAWSITTNHPYHRE [P0A8I8] | 5.401 ± 0.053 h | 3.23 ± 0.13 h | 5.99 ± 1.1 h | 6.18 ± 1.4 h | 3.18 ± 0.43 h | 2.78 ± 0.13 h | 4.96 ± 0.5 h | 9.34 ± 2 h | 4.87 ± 0.21 h | 8.26 ± 0.7 h | 4.57 ± 0.29 h | 9.29 ± 0.3 h
2 | MSPIEKSSKLENVCYDIRGPVLKEAKRLEEEGNKVLKLNIGNPAPFGFDAPDEILVDVIRNLPTAQGYCDSKGLYSARKAIMQHYQARGMRDVTVEDIYIGNGVSELIVQAMQALLNSGDEMLVPAPDYPLWTAAVSLSSGKAVHYLCDESSDWFPDLDDIRAKITPRTRGIVIINPNNPTGAVYSKELLMEIVEIARQHNLIIFADEIYDKILYDDAEHHSIAPLAPDLLTITFNGLSKTYRVAGFRQGWMVLNGPKKHAKGYIEGLEMLASMRLCANVPAQHAIQTALGGYQSISEFITPGGRLYEQRNRAWELINDIPGVSCVKPRGALYMFPKIDAKRFNIHDDQKMVLDFLLQEKVLLVQGTAFNWPWPDHFRIVTLPRVDDIELSLSKFARFLSGYHQL [P0A959] | 4.25 ± 0.35 h | 3.41 ± 0.16 h | 3.89 ± 0.23 h | 4.86 ± 1.1 h | 3.88 ± 0.19 h | 3.14 ± 0.28 h | 5.63 ± 0.23 h | 9.16 ± 0.84 h | 3.76 ± 0.29 h | 7.13 ± 0.82 h | 6.06 ± 0.87 h | 11.78 ± 0.1 h
3 | MIKVYGVPGWGSTISELMLTLADIPYQFVDVSGFDHEGASRELLKTLNPLCQVPTLALENDEIMTETAAIALMVLDRRPDLAPPVGRAERQLFQRLLVWLVANVYPTFTFADYPERWAPDAPEQLKKNVIEYRKSLYIWLNSQLTAEPYAFGEQLTLVDCYLCTMRTWGPGHEWFQDNATNISAIADAVCQLPKLQEVLKRNEII | 5.47 ± 0.78 h | 4.57 ± 0.21 h | 4.93 ± 0.096 h | 4.6 h | 4.48 ± 0.6 h | – | 4.99 h | – | 4.76 h | – | 6.17 h | 12.2 h
4 | MKVIIVEDEFLAQQELSWLIKEHSQMEIVGTFDDGLDVLKFLQHNRVDAIFLDINIPSLDGVLLAQNISQFAHKPFIVFITAWKEHAVEAFELEAFDYILKPYQESRITGMLQKLEAAWQQQQTSSTPAATVTRENDTINLVKDERIIVTPINDIYYAEAHEKMTFVYTRRESYVMPMNITEFCSKLPPSHFFRCHRSFCVNLNKIREIEPWFNNTYILRLKDLDFEVPVSRSKVKEFRQLMHL [P0AE39] | 5.23 ± 0.21 h | 4.51 ± 0.32 h | 4.019 ± 0.0042 h | 4.73 ± 0.72 h | 4.01 ± 0.061 h | 2.8 ± 0.42 h | 6 ± 0.71 h | 8.85 ± 0.64 h | 4.44 ± 0.42 h | 7.31 ± 0.66 h | 4.93 ± 0.72 h | 9.66 ± 0.46 h
5 | MQFSTTPTLEGQTIVEYCGVVTGEAILGANIFRDFFAGIRDIVGGRSGAYEKELRKAREIAFEELGSQARALGADAVVGIDIDYETVGQNGSMLMVSVSGTAVKTRR [P0A8C1] | 4.49 ± 0.27 h | 4.01 ± 0.34 h | 3.9 ± 0.47 h | 4.39 ± 0.13 h | 4.26 ± 0.15 h | 2.918 ± 0.013 h | 5.49 ± 0.17 h | 10.2 ± 3.2 h | 3.84 ± 0.47 h | 6.45 ± 0.22 h | 5.53 ± 0.24 h | 12.2 ± 0.14 h
6 | MDRIIEKLDHGWWVVSHEQKLWLPKGELPYGEAANFDLVGQRALQIGEWQGEPVWLVQQQRRHDMGSVRQVIDLDVGLFQLAGRGVQLAEFYRSHKYCGYCGHEMYPSKTEWAMLCSHCRERYYPQIAPCIIVAIRRDDSILLAQHTRHRNGVHTVLAGFVEVGETLEQAVAREVMEESGIKVKNLRYVTSQPWPFPQSLMTAFMAEYDSGDIVIDPKELLEANWYRYDDLPLLPPPGTVARRLIEDTVAMCRAEYE | – | 5.5 ± 1.5 h | 5.52 ± 2 h | 4.5929 ± 0.0003 h | 4.57 ± 0.72 h | 3.06 ± 1.1 h | 5.09 ± 0.28 h | 11.1 ± 0.68 h | 4.5 ± 0.24 h | 6.936 ± 0.055 h | 5.97 ± 0.23 h | 11.17 ± 0.051 h
7 | MASGDLVRYVITVMLHEDTLTEINELNNYLTRDGFLLTMTDDEGNIHELGTNTFGLISTQSEEEIRELVSGLTQSATGKDPEITITTWEEWNSNRK | 6.09 ± 0.66 h | 4.87 h | 4.69 h | – | 4.44 ± 0.47 h | 3.04 ± 0.33 h | 4.88 ± 0.37 h | 10.1 h | 6.08 h | 8.21 h | 4.86 ± 0.83 h | 11.1 ± 0.71 h
8 | MRFLLGVLMLMISGSALATIDVLQFKDEAQEQQFRQLTEELRCPKCQNNSIADSNSMIATDLRQKVYELMQEGKSKKEIVDYMVARYGNFVTYDPPLTPLTVLLWVLPVVAIGIGGWVIYARSRRRVRVVPEAFPEQSVPEGKRAGYVVYLPGIVVALIVAGVSYYQTGNYQQVKIWQQATAQAPALLDRALDPKADPLNEEEMSRLALGMRTQLQKNPGDIEGWIMLGRVGMALGNASIATDAYATAYRLDPKNSDAALGYAEALTRSSDPNDNRLGGELLRQLVRTDHSNIRVLSMYAFNAFEQQRFGEAVAAWEMMLKLLPANDTRRAVIERSIAQAMQHLSPQESK [P0ABM9] | 3.85 ± 0.42 h | – | 3.5 ± 0.5 h | – | 3.32 ± 0.057 h | 3.26 ± 0.15 h | – | 9.451 ± 0.016 h | 3.8 ± 0.21 h | 5.979 ± 0.034 h | 3.91 ± 0.59 h | 6.58 ± 1.2 h
